Reference: patent US20160152995A1, “METHODS AND COMPOSITIONS TO IMPROVE THE SPREAD OF CHEMICAL SIGNALS IN PLANTS” (PIONEER HI-BRED INTERNATIONAL, INC., priority 2013, published 2016)
Positions count from the first letter of the chain named.

B1: L8-3F01: library L8 chlorsulfuron repressor hit, parent for saturation mutagenesis (protein)
chain: MARLDKSKVINSALELLNEVGIEGLTTRKLAQKLGVEQPTLYWHVKNKRALLDALAIEMMDRHQTHYLPLEGESWQDFLRNNAKSCRRALLSHRDGAKVCLGTRWTEQQYETAENMLAFLTQQGFSLENALYAVSAVRVFTLGAVLFDQESQVAKEERETPTTDSMPPLLRQAWELKDHQGAEPAFLFGLELIIAGLEKQLKRESGS
modifications: Sulfonylurea responsive repressor
notes: library L8 chlorsulfuron repressor hit, parent for saturation mutagenesis
B2: CsL4.2-30 (protein)
chain: MARLDKSKVINSALELLNEVGIEGLTTRKLAQKLGVEQPTLYWHVKNKRALLDALAIEMHDRHQTHYLPLEGESWQDFLRNFAKSMRRALLSHRDGAKVALGTRWTEQQYETAENMLAFLTQQGFSLENALYATSAVRVFTLGAVLLDQEGQVANEERETPTPDSMPPLLRQAWELKVHQGAEPAFLFGLELIIAGLEKQLKRESGSHHHHHH
modifications: Sulfonylurea responsive repressor
B3: CsL4.2-18 (protein)
chain: B2 chain with H60M, R88C, G151Q, N155K, S165R, I193L
modifications: Sulfonylurea responsive repressor
B4: CsL4.2-27 (protein)
chain: B2 chain with H60M, R88C, A100S, S135D, G151Q, N155K, S165R, R171Q, V178E, E204D
modifications: Sulfonylurea responsive repressor
B5: CsL4.2-12 (protein)
chain: B2 chain with Q64G, P163T
modifications: Sulfonylurea responsive repressor
B6: CsL4.2-17 (protein)
chain: B2 chain with H60M, F78Y, R88C, G151Q, N155K, P163T
modifications: Sulfonylurea responsive repressor
B7: CsL4.2-11 (protein)
chain: B2 chain with Q64G, F78Y, A100S, G151Q, N155K, P163T, V178E, K202X
modifications: not fully specified; Sulfonylurea responsive repressor; VARIANT 202: Xaa = Any Amino Acid
B8: CsL4.2-26 (protein)
chain: B2 chain with F78Y, R88C, A100S, G151Q, N155K, S165R
modifications: Sulfonylurea responsive repressor
B9: CsL4.2-23 (protein)
chain: B2 chain with H60M, F78Y, R88C, G151Q, N155K, S165R
modifications: Sulfonylurea responsive repressor
B10: CsL4.2-04 (protein)
chain: B2 chain with R88C, S135D, G151Q, E157G, P163T, V178E
modifications: Sulfonylurea responsive repressor
B11: CsL4.2-01 (protein)
chain: B2 chain with F78Y, S135D, N155K, P163T
modifications: Sulfonylurea responsive repressor
B12: CsL4.2-20: Chlorsulfuron (Cs) repressor, top hit of library CsL4.2 (protein)
chain: MARLDKSKVINSALELLNEVGIEGLTTRKLAQKLGVEQPTLYWHVKNKRALLDALAIEMHDRHQTHYLPLEGESWQDFLRNFAKSMRLALLSHRDGAKVSLGTRWTEQQYETAENMLAFLTQQGFSLENALYATDAVRVFTLGAVLLDQEQQVAKEERETPTPDSMPPLLRQAWELKVHQGAEPAFLFGLELIIAGLEKQLKRESGS
modifications: Sulfonylurea responsive repressor
B13: clone L1-22: SuR polypeptide, SEQ ID NO:7 (protein)
chain: MGSRLDKSKVINSALELLNEVGIEGLTTRKLAQKLGVEQPTLYWHVKNKRALLDALAIEMMDRHHTHFCPLEGESWQDFLRNTAKSYRCALLSHRDGAKVCLGTAITEKQYETKENNLAFLCQQGFSLENALYARQAVRVFTLGCVLFDQEMQVAKEERETPTTDSMPPLLRQASELLDHQGAEPAFLFGLELIICGLEKQLKSESGS
modifications: Sulfonylurea responsive repressor
B14: clone L1-29: SuR polypeptide, SEQ ID NO:10 (protein)
chain: MGSRLDKSKVINSALELLNEVGIEGLTTRKLAQKLGVEQPTLYWHVKNKRALLDALAIEMMDRHQTHFCPLEGESWQDFLRNTAKSMRCALLSHRDGAKVWLGTRWTEKQYETPENMLAFLCQQGFSLENALYAWSAVCNFTLGCVLSDQERQVAKEERETPTTDSMPPLLRQAWELSDHQGAEPAFLFGLELIICGLEKQLKCESGS
modifications: Sulfonylurea responsive repressor

System: E. coli assay strain Km3
Experiment: Liquid B-galactosidase assays of chlorsulfuron repressor hits (induction and repression)
Settings: CsL3-MTZ hits; 20 ppb Cs vs no inducer
Description: In order to create new diversity for shuffling the top clone from CsL3 was subjected to error prone PCR mutagenesis using Mutazyme (Stratagene). The mutated PCR product encoding the CsR ligand binding domain was inserted into library expression vector pVER7334 as a Sac1 to Asc1 fragment, transformed into library strain Km3 and plated onto LB+40 ug/ml Kanamycin and 50 ug/ml Carbenecillin. Approximately 10,000 colonies were then replica plated onto M9 Xgal assay medium +/−20 ppb Cs. Putative hits were then re-arrayed and replica plated onto the same assay medium. Performance was gauged by the level of blue colony color after 24 hrs incubation on inducer (induction) and 72 hrs incubation without inducer (repression). The top hits were then subjected to liquid B-galactosidase assays for quantitative assessment (Table 21).
Seventh round library CsL4.2 was designed based on the best diversity from CsL3 and CsL3-MTZ library screens (Table 14). The library was assembled with oligonucleotides shown below in Table 22. The first and last primers were used as rescue primers. CsL4.2 included a C-terminal 6×His-tag extension to facilitate protein purification. The library was assembled and cloned into vector pVER7334 Sac1 to Asc1, transformed into library assay strain Km3 and plated onto LB+40 ug/m1 Kanamycin and 50 ug/ml carbenecillin. Approximately 8,000 colonies were re-arrayed into 384-well format and replica plated onto M9 Xgal assay medium +/−2 ppb Cs. Putative hits were re-arrayed in 96-well format onto the same media for re-testing. Confirmed hits were then tested for induction and repression aspects in liquid culture using B-galactosidase assays.
Mutagenesis reactions were transformed into E. coli assay strain Km3 and plated onto LB+50 ug/ml Carbenecillin. Colonies were then re-arrayed into 384 well format and replica plated onto M9 Xgal assay medium +/−5 ppb Chlorsulfuron. Putative hits were then re-arrayed and analyzed by B-galactosidase assays relative to the parent clones (FIG. 10).

| Molecule | F. IND = fold induction (IND/REP) (B-galactosidase assay) |
| --- | --- |
| B1 | 1 |

Same assay, conditions: CsL3-MTZ hits; liquid B-galactosidase assay, 20 ppb Cs

| Molecule | IND = induction with 20 ppb CS (B-galactosidase assay) |
| --- | --- |
| B1 | 8 |

Same assay, conditions: CsL3-MTZ hits; liquid B-galactosidase assay, no inducer

| Molecule | REP = repression in absence of inducer (B-galactosidase assay) |
| --- | --- |
| B1 | 7 |

Same assay, conditions: CsL4.2 hits; 20 ppb Cs vs no inducer

| Molecule | F. IND = fold induction (IND/REP) (B-galactosidase) |
| --- | --- |
| B2 | 10.8 |
| B3 | 9.3 |
| B4 | 9.1 |
| B5 | 9.5 |
| B6 | 9.7 |
| B7 | 8.9 |
| B8 | 10.6 |
| B9 | 10.5 |
| B10 | 10.2 |
| B11 | 9.8 |
| B1 | 2.0 |

Same assay, conditions: CsL4.2 hits; liquid B-galactosidase assay, 20 ppb Cs

| Molecule | IND = induction with 20 ppb CS (B-galactosidase) |
| --- | --- |
| B2 | 4.9 |
| B3 | 6.8 |
| B4 | 3.2 |
| B5 | 6.4 |
| B6 | 3.1 |
| B7 | 4.8 |
| B8 | 3.1 |
| B9 | 10.4 |
| B10 | 4.3 |
| B11 | 3.8 |
| B1 | 0.9 |
| B12 | 7.4 |

Same assay, conditions: CsL4.2 hits; liquid B-galactosidase assay, no inducer

| Molecule | REP = repression in absence of inducer (B-galactosidase) |
| --- | --- |
| B2 | 0.5 |
| B3 | 0.7 |
| B4 | 0.4 |
| B5 | 0.7 |
| B6 | 0.3 |
| B7 | 0.5 |
| B8 | 0.3 |
| B9 | 1.0 |
| B10 | 0.4 |
| B11 | 0.4 |
| B1 | 0.4 |
| B12 | 0.2 |

System: β-gal background activity
Experiment: First and second round library screen (L1, L2) for induction by sulfonylurea ligands, β-gal colony assay
Format: cell-based, E. coli
Settings: library L1 initial screen; data not shown
From the text: The original library was designed to thifensulfuron, but once induction activity was established with other SU compounds having potentially better soil and in planta stability properties than the original ligand, the evolution process was re-directed towards these alternative ligands. Of particular interest were herbicides metsulfuron, sulfometuron, ethametsulfuron and chlorsulfuron. For this objective, parental clones L1-9, -22, -29 and -44 were chosen for further shuffling. Clone L1-9 has strong activity on both ethametsulfuron and chlorsulfuron; clone L1-22 has strong sulfometuron activity; clone L1-29 has moderate metsulfuron activity; and clone L1-44 has moderate activity on metsulfuron, ethametsulfuron and chlorsulfuron. (Data not shown.). No clones found in the initial screen were exceptionally reactive to metsulfuron. These four clones were also chosen due to their relatively strong repressor activity, showing low β-gal background activity without inducer. Strong repressor activity is important for establishing a system which is both highly sensitive to the presence of inducer, and tightly off in the absence of inducer.
Based on the sequence information from parental clones L1-9, -22, -29 and -44, two second round libraries were designed, constructed and screened. The first library, L2, consisted of a ‘family’ shuffle whereby the amino acid diversity between the selected parental clones was varied using synthetic assembly of oligonucleotides to find clones improved in responsiveness to any of the four new target ligands.
The L2 oligonucleotides were assembled, cloned and screened as per the protocol described for library L1 except that each ligand was tested at 2 ppm to increase the stringency of the assay, which is a 10-fold reduction from 1st round library screening concentration.

| Molecule | induction activity on sulfometuron | induction activity on metsulfuron |
| --- | --- | --- |
| B13 | strong | – |
| B14 | – | moderate |

Same assay, conditions: β-gal colony assay; L2 library screened with each ligand at 2 ppm; numbers are the patent's inducer ligand numbers, atc for wt

| Molecule | Inducer preference |
| --- | --- |
| B13 | 3 |
| B14 | 9 (weak) |

System: E. coli assay strain Km3
Experiment: not given
Format: cell-based
Settings: CsL3 hits; 20 ppb Cs vs no inducer
Method in brief: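 Clones in KM3 replica-stamped onto M9 X-gal assay plates with no inducer, 0.2 ppm or 2.0 ppm chlorsulfuron and incubated ~48 h at 30° C. Induction scored as blue colony colour, with colour intensity measured from digital plate images at several time points.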

| Molecule | F. IND = fold induction (IND/REP) (Colony Assay Results) |
| --- | --- |
| B1 | 2.5 |

Same assay, conditions: CsL3 hits; M9 Xgal colony color, 0 ppb Cs

| Molecule | REP = repression in absence of inducer (Colony Assay Results) |
| --- | --- |
| B1 | 0.7 |

Same assay, conditions: CsL3 hits; M9 Xgal colony color, 20 ppb Cs

| Molecule | IND = induction with 20 ppb CS (Colony Assay Results) |
| --- | --- |
| B1 | 1.6 |

Same assay, conditions: library L8 hits; M9 Xgal colony assay; 200 ppb Chlorsulfuron; 24 hrs

| Molecule | IND = induction with 200 ppb Cs at 24 hrs (blue colony color intensity thru ImageJ analysis) |
| --- | --- |
| B1 | 1.7 |

Same assay, conditions: library L8 hits; M9 Xgal colony assay; ratio IND (200 ppb Cs, 24 hrs) / REP (48 hrs)

| Molecule | F. IND = fold induction: induction with 200 ppb Cs at 24 hrs/repression at 48 hrs |
| --- | --- |
| B1 | 3.0 |

Same assay, conditions: library L8 hits; M9 Xgal colony assay; without inducer; 48 hrs

| Molecule | REP = repression measured without inducer after 48 hrs (blue colony color intensity thru ImageJ analysis) |
| --- | --- |
| B1 | 0.6 |
